The values that follow come from patent publication US20250304677A1 (VIB VZW, published 2025).

Assay [1] has as its target T1, mouse folate receptor alpha (mFRα), recombinant protein (mouse, UniProt P35846 25-232).
T1 construct: Bought recombinant proteins (e.g. biotinylated, Acro Biosystems FO1-M82E9); also called mFOLR1; Ms FOLR1
Put plainly: BLI tandem binning on mouse FRα; competitor (1st association) 2HFO42. The text has this: VHHs that share high sequence identity in the CDR3 region, a VHH family, are derived from the same B-cell lineage and diverged from each other due to somatic hypermutation or affinity maturation. Typically, VHHs from the same family recognize the same epitope on the target, but may differ in other characteristics ^{∘}De Genst et al 2006 PNAS 103:4586-4591; De Gents et al 2005 J Biol Chem 280:14114-14121). To study whether the VHHs from the different families bound different epitopes, epitope binning was performed using a tandem binding approach in BLI. One VHH from each family was allowed to bind to mouse FRα on the biosensor, followed by binding of the second VHH ^{∘}Table 4).
Competition between VHHs from different complementarity determining region ^{∘}CDR) 3 families was assessed in a tandem binding assay using biolayer interferometry ^{∘}BLI). Streptavidin biosensors were loaded with biotinylated mouse FRα ^{∘}Acro Biosystems, Cat.nr. FO1-M82E9), followed by binding of anti-FRα VHHs ^{∘}VHH in first association). The biosensors were then transferred to a solution containing a second VHH mixed 1:1 with the first VHH ^{∘}VHH in second association). Using the FortéBio Data Analysis Software the absolute additional binding signal for the second association on top of the first association was calculated. The data were normalized per VHH in first association using the following formula: ^{∘}signal-self)/^{∘}maximum-self) with self being the value of the VHH in first association in combination with the same VHH in second association.

Assay [2] deals with T2, human folate receptor alpha expressed on cells (transfected HEK293T, HeLa, MCF7, MDA-MB-231) (human, UniProt P15328 25-234).
T2 construct: HEK293T transiently transfected with human FOLR1; also called native human FRα; cell-expressed human FOLR1
Put plainly: flow cytometry on HEK293T cells overexpressing human FOLR1, His tag detection, PE MFI, non-linear fit. Here is the method: Data were normalized and technical replicates were plotted as mean±SD. Data were fitted by non-linear regression and the half-maximal effective concentration ^{∘}EC50) was calculated using GraphPad Prism 9 software. ^{∘}FIG. 1C and FIG. 1D) Binding affinity determination of anti-FOLR1 VHHs for native FOLR1. Mouse ^{∘}FIG. 1C) or human FOLR1 FIG. 1D) was overexpressed on HEK293T cells and binding of the anti-FOLR1 VHHs was assessed using flow cytometry. The mean fluorescence intensity ^{∘}MFI) of the phycoerythrin signal was plotted for each VHH concentration. Data were fitted by non-linear regression using GraphPad Prism 9 software. ^{∘}FIG. 1E) Determination of the competition of representative family members with folic acid ^{∘}FA) using ELISA. Mouse FOLR1 was coated on the plate and was pre-incubated with or without 100 μM FA before adding the VHHs. Data were fitted by non-linear regression using GraphPad Prism 9 software.

The target of assay [3] is T3, human folate receptor beta (FRβ) (human, UniProt P14207 17-230, limits assumed).
T3 construct: also called hFOLR2; human FOLR2
Put plainly: flow cytometry on transiently transfected HEK293T cells, mouse anti-His then anti-mouse-PE (B575-A). The text has this:
(§1) FIGS. 2A-2C illustrates the epitope mapping of anti-FOLR1 VHHs on human FOLR1/2 chimeras. ^{∘}FIG. 2A) To narrow down the epitope of the anti-folate receptor alpha ^{∘}FOLR1) VHHs, chimeric constructs were generated by exchanging a sequence block in human FOLR1 ^{∘}hFOLR1) by the corresponding human folate receptor beta ^{∘}hFOLR2) sequence, since the VHHs are able to bind both hFOLR1 and mouse FOLR1 ^{∘}mFOLR1; SEQ ID No.97), but not hFOLR2. These regions are indicated by the green arrows. Chimera 1 SEQ ID No. 67) and 7 ^{∘}Ch7; SEQ ID No. 73) also contain an additional residue change at a separate location. […] HEK293T cells were transfected with hFOLR1, hFOLR2, one of the hFOLR1/2 chimeric constructs ^{∘}FIG. 2B) or single residue mutants ^{∘}FIG. 2C). Binding of VHHs 2HFO19, 2HFO42, 3MFR60, and a mouse anti-FOLR1 monoclonal antibody ^{∘}mAb) was detected using a mouse anti-His tag antibody for the VHHs followed by an anti-mouse-phycoerythrin antibody. All VHHs were tested at a concentration of 200 nM and untransfected cells were used as a negative control. The colors used for the VHHs represent the different CDR3 families; blue: family 1, green: family 3, grey: family 10.
(§2) To further narrow down which specific residues might play a role, single residues of human FRα in the chimera 4 region that are not conserved between FRα and FRβ were mutated to their human FRβ counterpart. While all VHHs retained binding to human FRα E140Q SEQ ID No. 77), R147H ^{∘}SEQ ID No. 79), and Y150H ^{∘}SEQ ID No. 80) ^{∘}data not shown), binding was completely abolished when the Q141R mutation ^{∘}SEQ ID No. 78) was introduced ^{∘}FIG. 2C). To verify the role of this residue in the binding of the VHHs, the R135 residue in human FRβ was replaced by glutamine ^{∘}SEQ ID No. 81) and binding of the VHHs was analyzed. […] In addition to having ^{∘}partially) overlapping epitopes, the VHHs thus all require residue Q141 for binding.
In general terms: A flow cytometer gives signals particle by particle.

Assay [4] has as its target T4, human FRα Q141R (human, UniProt P15328 25-234).
T4 construct: The entry is the mutant itself
The assay is described as above.
Source text: as §1, §2

For assay [5], the target named is T5, human folate receptor alpha (hFRα), recombinant protein (human, UniProt P15328 25-233).
T5 construct: Bought recombinant proteins (His-tagged, or biotinylated via Avi-tag, e.g. AcroBiosystems FO1-H82E2, F01-H52H1); also called hFOLR1; huFOLR1
Put plainly: BLI, FRα on AR2G biosensors, 1:1 model. Here is the method: (§3) As a next step, the kinetic binding constants were determined using BLI ^{∘}Table 3). […] Similar to the ELISA results ^{∘}FIG. 1A-B), higher binding affinities were measured for mouse FRα than human FRα, with KD values […] one order of magnitude in most cases. […] For 3HFO28, binding to human FRα could not be confirmed by BLI, and this VHH was excluded from further characterization.
(§4) The kinetic parameters were calculated using a 1:1 binding model.
In general terms: Biolayer interferometry detects binding as a change in optical thickness at a sensor tip.

The target in assay [6] is T1, mouse folate receptor alpha (mFRα), …. The assay can be described thus: BLI, FRα on AR2G biosensors, 1:1 model. Here is the method:
as §3, §4

T1 sequence (P35846 25-232 limits assumed): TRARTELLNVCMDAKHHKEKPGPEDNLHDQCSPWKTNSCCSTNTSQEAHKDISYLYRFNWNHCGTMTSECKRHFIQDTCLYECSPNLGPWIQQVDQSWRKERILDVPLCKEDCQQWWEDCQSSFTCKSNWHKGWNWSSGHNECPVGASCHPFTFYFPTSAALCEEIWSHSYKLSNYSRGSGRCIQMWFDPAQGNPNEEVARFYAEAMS
T3 sequence (P14207 17-230 limits assumed): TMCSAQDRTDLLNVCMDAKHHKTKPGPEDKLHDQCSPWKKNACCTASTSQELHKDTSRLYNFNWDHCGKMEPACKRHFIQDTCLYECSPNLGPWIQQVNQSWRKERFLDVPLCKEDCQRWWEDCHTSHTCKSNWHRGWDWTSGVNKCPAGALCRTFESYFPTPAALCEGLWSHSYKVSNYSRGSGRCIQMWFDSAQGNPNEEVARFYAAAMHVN
T4 sequence (P15328 25-234 Q141R limits assumed): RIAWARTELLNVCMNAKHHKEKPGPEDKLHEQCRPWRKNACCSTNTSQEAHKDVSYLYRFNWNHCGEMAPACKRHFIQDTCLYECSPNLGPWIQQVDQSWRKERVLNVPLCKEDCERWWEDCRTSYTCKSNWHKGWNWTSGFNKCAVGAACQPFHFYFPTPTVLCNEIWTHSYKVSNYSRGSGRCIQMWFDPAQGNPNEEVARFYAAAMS
T2 sequence (P15328 25-234 limits assumed): as the sequence (P15328 25-234 Q141R limits assumed) above, with R117Q counted along it
T5 sequence (P15328 25-233 limits assumed): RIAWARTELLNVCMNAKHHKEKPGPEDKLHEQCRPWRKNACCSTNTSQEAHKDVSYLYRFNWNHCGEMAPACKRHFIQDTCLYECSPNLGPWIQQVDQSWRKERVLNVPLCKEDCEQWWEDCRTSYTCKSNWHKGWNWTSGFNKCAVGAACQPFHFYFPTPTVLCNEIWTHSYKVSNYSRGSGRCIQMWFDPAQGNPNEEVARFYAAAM

B1: VHH 2HFO19 (family 1) (VHH)
VHH: QVQLQESGGGLVQPGGSLRVSCAASGFPFSTVYMSWVRQAPGKGLEWVSGINNDGGVIDYADSVKGRFTISRDNAKNTLYLQLNSLKPEDTALYFCARGRSFVATLSSSLRGQGTQVTVSS
notes: also called Nb19
For orientation: EC50 means the concentration that produces a half-maximal response. A higher EC50 goes with a need for much substance. As usually defined, the Kd is the equilibrium constant for the complex coming apart. Usually koff stands for the first-order rate constant of dissociation. Usually kon stands for the rate constant with which the complex forms. For the molecule B1, the “normalized additional binding in 2nd association” value (from here on “normalized additional binding”) in assay [1] was 12%. This molecule also registered a 50% effective concentration (EC50) in assay [2] of 4.5 nM. Moreover, the binding result in assay [3] is reported as “no binding (tested: 200 nM)”. For the same molecule, the binding result in assay [4] is reported as “no binding (tested: 200 nM)”. In addition, in assay [5], the equilibrium dissociation constant (Kd) came out at 63.7 nM, the off-rate (koff) came out at 0.0149 s⁻¹ and the on-rate constant (kon) stood at 233000 M⁻¹ s⁻¹. In assay [6], the Kd was 2.97 nM, the koff was 0.00393 s⁻¹ and the on-rate constant (kon) was found to be 1.32e+06 M⁻¹ s⁻¹.

B2: VHH 2HFO42 (family 3) (VHH)
VHH: QVQLQESGGGLVQAGGSLRLSCAASGSGFSGMIMGWYRQVPGKQRELVATVTSHGTTNYADSVKGRFTISRDNAKNTVLLQMNSLKPEDTAVYYCNAHFPGIYWGKGTQVTVSS
notes: also called 2HF042; Nb42
In the case of B2, the “normalized additional binding” value in assay [1] was 0%. The same molecule registered a half-maximal effective concentration (EC50) in assay [2] of 26.4 nM. The binding result in assay [3] and in assay [4] was “no binding (tested: 200 nM)” in each case. For the same molecule, the Kd was 274 nM in assay [5] and 23.8 nM in assay [6]. In addition, the results for the off-rate (koff) in assay [5] and in assay [6] were 0.0276 s⁻¹ and 0.00467 s⁻¹, respectively. Further, the kon amounted to 101000 M⁻¹ s⁻¹ in assay [5] and 203000 M⁻¹ s⁻¹ in assay [6].

B3: VHH 3MFR60 (family 10) (VHH)
VHH: QVQLQESGGGLVQAGGSLRVSCAASGIIFSMNGMGWFRQAPGKQRELVASITSGGSTKYADSVKGRFTISRDNAKNTVYLQMNSLKPEDTAVYYCNIQFGSRWSTYWGQGTQVTVSS
Consider B3, for which the “normalized additional binding” value in assay [1] came out at 34%. For the same molecule, the 50% effective concentration (EC50) in assay [2] was 10.1 nM. Further, the binding result in assay [3] was “no binding (tested: 200 nM)”. In addition, in assay [4], the binding result is on record as “no binding (tested: 200 nM)”. In addition, in assay [5], the equilibrium dissociation constant (Kd) came out at 169 nM, the off-rate constant (koff) came to 0.159 s⁻¹ and the kon was 938000 M⁻¹ s⁻¹. Further, in assay [6], the dissociation constant Kd was 2.59 nM, the koff was found to be 0.00297 s⁻¹ and the kon came to 1.15e+06 M⁻¹ s⁻¹.
